Earlier results in patent US11458170B2, “Pharmaceutical composition comprising erythrocytes encapsulating a PLP-dependent enzyme and, a non-phosphate PLP precursor” (ERYTECH PHARMA, priority 2014, dated 2022).

What was measured:
[1] = in vivo
[2] = not given; remark: listed apart in the source

Plasma half-life of free PLP [1]	Compound	Plasma activity of the enzyme (24 h after IV injection, immunodeficient mice, determined in vitro without adding PLP)	Half-life in mice (mice) [h]	Treated animals developing anti-rMETase antibodies (IgG, IgM) ([2]; macaques)	Death after anaphylactic shock ([2]; second IV injection 28 days after the first)	Anaphylactic shock after second injection ([2]; second IV injection 28 days after the first, six monkeys)
about 15 minutes	Cc1ncc(COP(=O)(O)O)c(C=O)c1O [PLP, pyridoxal phosphate]					
	rMETase: recombinant methioninase produced in Escherichia coli from the Pseudomonas putida gene (Sun et al.)	undetectable	2	four out of six	death of one of the two animals	in two monkeys an anaphylactic shock
